Laboratory results: US20260248837A1

Target: human CXCR4 (human) (UniProt P61073)
Assay: cell-based or functional assay

Chain of UniProt P61073 (P61073 1-350): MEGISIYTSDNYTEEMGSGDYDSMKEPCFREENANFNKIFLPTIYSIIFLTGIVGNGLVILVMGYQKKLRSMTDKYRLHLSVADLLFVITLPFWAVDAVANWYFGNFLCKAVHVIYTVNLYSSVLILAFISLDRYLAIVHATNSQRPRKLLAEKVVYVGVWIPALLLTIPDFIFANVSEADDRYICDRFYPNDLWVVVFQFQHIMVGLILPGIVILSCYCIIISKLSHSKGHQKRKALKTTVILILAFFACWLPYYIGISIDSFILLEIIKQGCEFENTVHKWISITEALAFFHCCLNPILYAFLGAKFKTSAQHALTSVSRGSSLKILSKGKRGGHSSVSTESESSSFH

migration of Jurkat cells (chemotaxis assay), half-maximal stimulation: 0.3 nM | migration of Nalm-6 cells (chemotaxis assay), half-maximal stimulation: 0.3 nM
Substance: human CXCL12 (human CXCL12α, L-CXCL12) (ligand)
